Molecular target: Human Herpes Simplex Virus glycoprotein D (Human Herpes Simplex Virus) (UniProt Q69091)
Assay: differential scanning calorimetry; peak height of the DSC thermogram of the pure protein compared with a DNA hairpin standard curve; ratio of the calorimetric concentration to the UV-Vis or dry-weight concentration read as stoichiometry; 150 mM NaCl, 10 mM potassium phosphate, 15 mM sodium citrate, pH 7.4; heating about 1°C/min

Work on “Human Herpes Simplex Virus glycoprotein D (from UniProt Q69091 26-394) (natural protein)” yielded a factor of the transition heat capacity over the average of the other molecules of 2.2 fold, a percent of dimers in the sample of 35% and a percent of trimers in the sample of 65%. The stoichiometry N was 2.65.

From PMC10906865
